From article PMC10089223 (Proceedings of the National Academy of Sciences of the …, 2022)
Substitutions are numbered along the chain they refer to. Names may count otherwise.

B1: AtARF2-FL OPCA (D797-8S) (natural protein, Arabidopsis thaliana, UniProt Q94JM3 1-859, looked up)
chain: MASSEVSMKGNRGGDNFSSSGFSDPKETRNVSVAGEGQKSNSTRSAAAERALDPEAALYRELWHACAGPLVTVPRQDDRVFYFPQGHIEQVEASTNQAAEQQMPLYDLPSKLLCRVINVDLKAEADTDEVYAQITLLPEANQDENAIEKEAPLPPPPRFQVHSFCKTLTASDTSTHGGFSVLRRHADECLPPLDMSRQPPTQELVAKDLHANEWRFRHIFRGQPRRHLLQSGWSVFVSSKRLVAGDAFIFLRGENGELRVGVRRAMRQQGNVPSSVISSHSMHLGVLATAWHAISTGTMFTVYYKPRTSPSEFIVPFDQYMESVKNNYSIGMRFKMRFEGEEAPEQRFTGTIVGIEESDPTRWPKSKWRSLKVRWDETSSIPRPDRVSPWKVEPALAPPALSPVPMPRPKRPRSNIAPSSPDSSMLTREGTTKANMDPLPASGLSRVLQGQEYSTLRTKHTESVECDAPENSVVWQSSADDDKVDVVSGSRRYGSENWMSSARHEPTYTDLLSGFGTNIDPSHGQRIPFYDHSSSPSMPAKRILSDSEGKFDYLANQWQMIHSGLSLKLHESPKVPAATDASLQGRCNVKYSEYPVLNGLSTENAGGNWPIRPRALNYYEEVVNAQAQAQAREQVTKQPFTIQEETAKSREGNCRLFGIPLTNNMNGTDSTMSQRNNLNDAAGLTQIASPKVQDLSDQSKGSKSTNDHREQGRPFQTNNPHPKDAQTKTNSSRSCTKVHKQGIALGRSVDLSKFQNYEELVAELDRLFEFNGELMAPKKDWLIVYTDEENDMMLVGSSPWQEFCCMVRKIFIYTKEEVRKMNPGTLSCRSEEEAVVGEGSDAKDAKSASNPSLSSAGNS
B2: AtARF2-FL K2S (K737S) (natural protein, Arabidopsis thaliana, UniProt Q94JM3 1-859, looked up)
chain: B1 chain with K737S, S797D, S798D

How the values were obtained:
[1] = biological target: AtARF2-DBD (DNA binding domain of Arabidopsis thaliana auxin response factor 2) (Arabidopsis thaliana)
[2] = biological target: the molecule itself
AtARF2-FL OPCA (D797-8S) = biological target: B1

| Molecule | Kd [1] [nM] | Kd [2] [nM] | Kd (AtARF2-FL OPCA (D797-8S)) [nM] |
| --- | --- | --- | --- |
| AtARF2-DBD (DNA binding domain of Arabidopsis thaliana auxin response factor 2) (domain or fragment) | 1900 |  |  |
| B1 |  | 410 |  |
| B2 |  | 230 | 16 |
